Results on three molecules are retold here after paper doi:10.1101/2021.08.24.457482 (bioRxiv, 2021).

Sequences and labels used below:
B1: CD72 fused with a V5 epitope tag, expressed in U87MG-ΔNRP-1-CD72+ cells (receptor)
chain: MAEAITYADLRFVKAPLKKSISSRLGQDPGADDDGEITYENVQVPAVLGVPSSLASSVLGDKAAVKSEQPTASWRAVTSPAVGRILPCRTTCLRYLLLGLLLTCLLLGVTAICLGVRYLQVSQQLQQTNRVLEVTNSSLRQQLRLKITQLGQSAEDLQGSRRELAQSQEALQVEQRAHQAAEGQLQACQADRQKTKETLQSEEQQRRALEQKLSNMENRLKPFFTCGSADTCCPSGWIMHQKSCFYISLTSKNWQESQKQCETLSSKLATFSEIYPQSHSYYFLNSLLPNGGSGNSYWTGLSSNKDWKLTDDTQRTRTYAQSSKCNKVHKTWSWWTLESESCRSSLPYICEMTAFRFPD
B2: modified truncated sema3A (T-sema3A) (ligand)
chain: NYQNGKNNVPRLKLSYKEMLESNNVITFNGLANSSSYHTFLLDEERSRLYVGAKDHIFSFDLVNIKDFQKIVWPVSYTRRDECKWAGKDILKECANFIKVLKAYNQTHLYACGTGAFHPICTYIEIGHHPEDNIFKLENSHFENGRGKSPYDPKLLTASLLIDGELYSGTAADFMGRDFAIFRTLGHHHPIRTEQHDSRWLNDPKFISAHLISESDNPEDDKVYFFFRENAIDGEHCGKATHARIGQICKNDFGGHRSLVNKWTTFLKARLICSVPGPNGIDTHFDELQDVFLMNFKDPKNPVVYGVFTTSSNIFKGSAVCMYSMSDVRRVFLGPYAHRDGPNYQWVPYQGRVPYPRPGTCPSKTFGGFDSTKDLPDDVITFARSHPAMYNPVFPMNNRPIVIKTDVNYQFTQIVVDRVDAEDGQYDVMFIGTDVGTVLKVVSIPKETWYDLEEVLLEEMTVFREPTAISAMELSTKQQQLYIGSTAGVAQLPLHR
B3: Sema3A fused in frame with alkaline phosphatase (sema3A-AP) (ligand)
chain: NYQNGKNNVPRLKLSYKEMLESNNVITFNGLANSSSYHTFLLDEERSRLYVGAKDHIFSFDLVNIKDFQKIVWPVSYTRRDECKWAGKDILKECANFIKVLKAYNQTHLYACGTGAFHPICTYIEIGHHPEDNIFKLENSHFENGRGKSPYDPKLLTASLLIDGELYSGTAADFMGRDFAIFRTLGHHHPIRTEQHDSRWLNDPKFISAHLISESDNPEDDKVYFFFRENAIDGEHSGKATHARIGQICKNDFGGHRSLVNKWTTFLKARLICSVPGPNGIDTHFDELQDVFLMNFKDPKNPVVYGVFTTSSNIFKGSAVCMYSMSDVRRVFLGPYAHRDGPNYQWVPYQGRVPYPRPGTCPSKTFGGFDSTKDLPDDVITFARSHPAMYNPVFPMNNRPIVIKTDVNYQFTQIVVDRVDAEDGQYDVMFIGTDVGTVLKVVSIPKETWYDLEEVLLEEMTVFREPTAISAMELSTKQQQLYIGSTAGVAQLPLHRCDIYGKACAECCLARDPYCAWDGSACSRYFPTAKRRTRRQDIRNGDPLTHCSDLHHDNHHGHSPEERIIYGVENSSTFLECSPKSQRALVYWQFQRRNEERKEEIRVDDHIIRTDQGLLLRSLQQKDSGNYLCHAVEHGFIQTLLKVTLEVIDTEHLEELLHKDDDGDGSKTKEMSNSMTPSQKVWYRDFMQLINHPNLNTMDEFCEQVWKRDRKQRRQRPGHTPGNSNKWKHLQENKKGRNRRTHEFERAPRSV

In series [1] the target is B3. In words: alkaline phosphatase fusion binding to cells.
Series [2] deals with the molecule itself. In words: SDS-PAGE with and without reducing agent, western blot. In general terms: In western blotting, separated proteins are transferred to a membrane and probed.
Series [3] has as its target neuropilin-1 (NRP-1) on parental U87MG cells (human (endogenous in U87MG), UniProt O14786 22-923). In words: alkaline phosphatase fusion binding to cells.

Chain of neuropilin-1 (NRP-1) on parental U87MG cells (O14786 22-923): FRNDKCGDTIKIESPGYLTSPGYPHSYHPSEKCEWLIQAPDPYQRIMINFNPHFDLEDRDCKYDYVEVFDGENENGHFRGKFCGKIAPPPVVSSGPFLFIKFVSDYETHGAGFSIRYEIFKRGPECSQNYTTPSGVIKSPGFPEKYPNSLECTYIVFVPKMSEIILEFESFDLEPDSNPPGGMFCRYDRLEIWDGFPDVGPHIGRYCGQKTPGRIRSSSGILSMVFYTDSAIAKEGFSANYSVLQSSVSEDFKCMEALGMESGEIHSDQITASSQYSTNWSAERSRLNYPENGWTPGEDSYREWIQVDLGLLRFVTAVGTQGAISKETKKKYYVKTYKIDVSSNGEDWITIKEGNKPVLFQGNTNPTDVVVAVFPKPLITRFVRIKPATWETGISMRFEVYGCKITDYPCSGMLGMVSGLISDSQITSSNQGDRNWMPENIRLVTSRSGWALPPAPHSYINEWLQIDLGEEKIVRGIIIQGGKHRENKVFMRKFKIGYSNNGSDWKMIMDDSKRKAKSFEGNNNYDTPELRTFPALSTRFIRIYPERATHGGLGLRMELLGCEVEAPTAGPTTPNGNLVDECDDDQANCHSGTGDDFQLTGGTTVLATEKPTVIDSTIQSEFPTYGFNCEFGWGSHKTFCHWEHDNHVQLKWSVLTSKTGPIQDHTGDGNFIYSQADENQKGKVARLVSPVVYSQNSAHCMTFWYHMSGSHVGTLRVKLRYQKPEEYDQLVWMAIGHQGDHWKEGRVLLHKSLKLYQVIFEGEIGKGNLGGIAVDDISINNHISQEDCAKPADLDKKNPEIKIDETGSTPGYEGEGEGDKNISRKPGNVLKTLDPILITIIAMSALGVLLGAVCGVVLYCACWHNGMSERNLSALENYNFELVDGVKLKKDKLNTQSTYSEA

One may read the Kd as the free concentration of one partner at which half of the binding sites on the other are occupied at equilibrium, for simple one-to-one binding. In the case of B1, the Kd in series [1] is roughly 7.62 nM. By stoichiometry N is commonly meant the number of molecules, sites or subunits per partner or assembly. For the molecule B2, the “stoichiometry N” value in series [2] was found to be 2.

For B3, the Kd in series [3] was roughly 4.73 nM.
